Biological target: the molecule itself
Experiment: cryo-EM structure; single-particle cryoEM of NBCe1-A (~0.4 mg/ml) in amphipol PMAL-C8, 20 mM Tris-HCl pH 7.5, 150 mM NaCl; C2 symmetry imposed; 3.9 Å

B1: Human N-terminally Strep(II)-tagged wild-type NBCe1-A (SLC4A4 sodium-bicarbonate cotransporter) (natural protein, UniProt Q9Y6R1-2 1-1035, looked up)
chain: MSTENVEGKPSNLGERGRARSSTFLRVVQPMFNHSIFTSAVSPAAERIRFILGEEDDSPAPPQLFTELDELLAVDGQEMEWKETARWIKFEEKVEQGGERWSKPHVATLSLHSLFELRTCMEKGSIMLDREASSLPQLVEMIVDHQIETGLLKPELKDKVTYTLLRKHRHQTKKSNLRSLADIGKTVSSASRMFTNPDNGSPAMTHRNLTSSSLNDISDKPEKDQLKNKFMKKLPRDAEASNVLVGEVDFLDTPFIAFVRLQQAVMLGALTEVPVPTRFLFILLGPKGKAKSYHEIGRAIATLMSDEVFHDIAYKAKDRHDLIAGIDEFLDEVIVLPPGEWDPAIRIEPPKSLPSSDKRKNMYSGGENVQMNGDTPHDGGHGGGGHGDCEELQRTGRFCGGLIKDIKRKAPFFASDFYDALNIQALSAILFIYLATVTNAITFGGLLGDATDNMQGVLESFLGTAVSGAIFCLFAGQPLTILSSTGPVLVFERLLFNFSKDNNFDYLEFRLWIGLWSAFLCLILVATDASFLVQYFTRFTEEGFSSLISFIFIYDAFKKMIKLADYYPINSNFKVGYNTLFSCTCVPPDPANISISNDTTLAPEYLPTMSSTDMYHNTTFDWAFLSKKECSKYGGNLVGNNCNFVPDITLMSFILFLGTYTSSMALKKFKTSPYFPTTARKLISDFAIILSILIFCVIDALVGVDTPKLIVPSEFKPTSPNRGWFVPPFGENPWWVCLAAAIPALLVTILIFMDQQITAVIVNRKEHKLKKGAGYHLDLFWVAILMVICSLMALPWYVAATVISIAHIDSLKMETETSAPGEQPKFLGVREQRVTGTLVFILTGLSVFMAPILKFIPMPVLYGVFLYMGVASLNGVQFMDRLKLLLMPLKHQPDFIYLRHVPLRRVHLFTFLQVLCLALLWILKSTVAAIIFPVMILALVAVRKGMDYLFSQHDLSFLDDVIPEKDKKKKEDEKKKKKKKGSLDSDNDDSDCPYSEKVPSIKIPMDIMEQQPFLSDSKPSDRERSPTFLERHTSC
notes: Electrogenic sodium bicarbonate cotransporter 1, NBCe1-A variant, human, full length; Only the membrane domain was modelled (474 residues per protomer); Met1-Gly400, Cys583-Leu637, Ser713-Trp734, Glu814-Lys825 and Asp966-Cys1035 were not modelled. numbers count on: the NBCe1-A isoform (1035 residues); Homodimer in amphipol PMAL-C8; The pTT vector is named (Addgene), no plasmid number is printed; …
How did the “stoichiometry N” value turn out when B1 was run?
Its value is 2.
